According to US20140065128A1:

What was measured:
[1] = biological target: Human myeloma IgE (human) (UniProt P01854); test: SPR (BIAcore 2000, 25 C): GST-EndoS (E235Q) amine-coupled to a CM5 chip, human myeloma IgE injected at 10-1.25 ug/ml; 1:1 Langmuir fit, KD from mean rate constants
[2] = biological target: Human IgE in whole blood of healthy volunteers (on basophils); test: cell-based or functional assay

Row | Substance | Kd [1] [µM] | CD203c+ cells among CD123+, HLA-DR- basophils after chicken anti-IgE stimulation of whole blood (FACS); untreated blood 83% [2] [%]
1 | GST-EndoS (E235Q), enzymatically inactive form of EndoS from Streptococcus pyogenes (from UniProt Q99Y92 37-995) (enzyme) | 0.133 | –
2 | GST-EndoS (enzymatically active) (from UniProt Q99Y92 37-995) (enzyme) | – | 15
